The RNAGym collection of RNA variant scans (doi:10.1021/acssynbio.7b00057)

B1: Pistol ribozyme (parent)
chain: GGGUCGUUGUUCCAUAAUCGCGUGGAUAUGGCACGCAAGUUUCUACCGGGCACCGUAAAUGUCCGACUGGAGCCGUUCGGGCGGCUAUAAACAGACCUCAGGCCCGAAGCGUGGCGGCACCUGCCGCCGGUGGUAAAAAAGAUCGGAAGAGCACACGUCU

Variants of: B1
Test: aptazyme ON/OFF ratio, guanine; higher = stronger switching; co-transcriptional cleavage with and without guanine

Variant | aptazyme ON/OFF ratio
U7G G9A U10A C12A | 1.2
U7G G9A U10A C12G | 1.18
U7G G9A U10A C12U | 1.31
U7C U11G C12A | 1.18
U7C U11G C12G | 1.31
U7C U11G C12U | 1.26
U7C U10G U11G C13G | 1.13
U7C U10G U11G C13A | 1.15
U7C U10G U11G C13U | 1.22
U7C U11A C12U C13A | 1.18
U7C U11A C12U C13U | 1.16
U7C U11A C12U C13G | 1.17
U7C U11C C12U C13U | 1.29
U7C U11C C12U C13A | 1.39
U7C U11C C12U C13G | 1.22
U7G G9A U10C | 3.35
U7G G9A U10A | 3.3
U7G C12G | 1.25
U7G C12A | 1.14
U7G C12U | 1.39
U7C U11C C12U | 1.5

Variant | aptazyme ON/OFF ratio
U7C U11C C12G | 1.35
U7C U11C C12A | 1.1
U7G G9A U10A U11G C13A | 1.09
U7G G9A U10A U11G C13G | 1.13
U7G G9A U10A U11G C13U | 1.14
U7G G9A U10A U11A C12A C13A | 1.07
U7G G9A U10A U11A C12A C13U | 1.11
U7G G9A U10A U11A C12A C13G | 1.13
U7G G9A C12A C13A | 1.09
U7G G9A C12A C13U | 1.13
U7G G9A C12A C13G | 1.15
U7G | 1.89
U7C U10G U11C C12U C13A | 1.28
U7C U10G U11C C12U C13G | 1.16
U7C U10G U11C C12U C13U | 1.27
U7C U11G C12U C13U | 1.2
U7C U11G C12U C13G | 1.06
U7C U11G C12U C13A | 1.13
U7G G9A U10A U11A C12G C13G | 1.19
U7G G9A U10A U11A C12G C13A | 1.1
U7G G9A U10A U11A C12G C13U | 1.12

Variant | aptazyme ON/OFF ratio
U7C U10G U11C C13A | 1.08
U7C U10G U11C C13U | 1.02
U7C U10G U11C C13G | 1.06
U7G G9A C13G | 1.11
U7G G9A C13U | 1.49
U7G G9A C13A | 1.24
U7C U10G U11G C12U C13U | 1.3
U7C U10G U11G C12U C13A | 1.13
U7C U10G U11G C12U C13G | 1.1
U7G G9A U10A C12U C13A | 1.14
U7G G9A U10A C12U C13U | 1.22
U7G G9A U10A C12U C13G | 1.24
U7G G9A U10A U11G C12G C13A | 1.09
U7G G9A U10A U11G C12G C13U | 1.22
U7G G9A U10A U11G C12G C13G | 1.14
U7G G9A C12U C13G | 1.15
U7G G9A C12U C13U | 1.18
U7G G9A C12U C13A | 1.14
U7G G9A U10A U11A C12A | 1.1
U7G G9A U10A U11A C12U | 1.2
U7G G9A U10A U11A C12G | 1.2

Variant | aptazyme ON/OFF ratio
U7G C12G C13G | 1.14
U7G C12G C13U | 1.17
U7G C12G C13A | 1.08
U7G G9A U10A U11C C12A C13G | 1.1
U7G G9A U10A U11C C12A C13U | 1.21
U7G G9A U10A U11C C12A C13A | 1.13
U7G G9A U10A U11C C12U C13G | 1.15
U7G G9A U10A U11C C12U C13A | 1.15
U7G G9A U10A U11C C12U C13U | 1.2
U7G G9A U10A C12G C13A | 1.09
U7G G9A U10A C12G C13G | 1.12
U7G G9A U10A C12G C13U | 1.25
U7G G9A U10A C13U | 1.28
U7G G9A U10A C13A | 1.07
U7G G9A U10A C13G | 1.06
U7G G9A U10A U11A C12U C13G | 1.19
U7G G9A U10A U11A C12U C13A | 1.12
U7G G9A U10A U11A C12U C13U | 1.17
U7C U11G C12G C13U | 1.15
U7C U11G C12G C13G | 1.27
U7C U11G C12G C13A | 1.14
